The results in this text go back to patent publication US7871797B2, “DNA encoding a bacterial protease for degrading gelatin and collagen” (Jellice Co., Ltd., priority 2003, dated 2011).

The series is described as follows: Temperature stability of the enzyme. The note with it: then 30 min at 37° C. with substrate. Type of series: physicochemical. The method, then: i) Temperature Stability • The enzyme was left standing for one hour at various temperatures of from 0 to 60° C. and subsequently reacted with a synthetic substrate for 30 min at 37° C. Enzyme activity was then measured.

B1: protease of the present invention: protease of molecular weight 21,000±1,000 from Aureobacterium sp. MIM-CG-9535-I cutting specific Gly-Phe and Ser-Leu sites (protein, listed as Aureobacterium sp.)
chain: LIVNTVNSIDDKWSDAQASALTYCVSTAFGARHADVVSAMESGAALWEAASSKIDFIYDSSADANCTTRNNAVLFSVEPVQTTQYIARAFFPSTAPRLQNVLIDDSIWTPGSSWTPTNVLGHELGHVLGFRHEHTRPEAGTCFEDDNWRPLTPYDSSSIMHYPQCNGSSADLSMTSVDTDGVVALYGN
With B1, the “Temperature stability: residual activity” value (left standing one hour at 30° C.) is on record as “about half”. Besides, the Temperature stability entry (left standing one hour at 40° C. and above) was “nearly deactivated”.
